Measured values from publication PMC6868158.
pKd: −log10 of the molar value.

Key:
[1] = system: tTALE-eGFP (truncated TALE, 7-mer TGTCTGT repeat domain, fused to eGFP) (artificial construct (from TALEN plasmid RHD_Exon4_TALEN_L)); test: FRET; conditions: FRET: TE pH 8.0, 100 nM dsDNA, 10-100 nM tTALE-eGFP for Kd; NaCl series 0-200 mM at 30 nM protein; excitation 488 nm, emission 631 nm; temperature not stated
[2] = system: tTALE-eGFP (truncated TALE, 7-mer TGTCTGT repeat domain, fused to eGFP) (artificial construct (from TALEN plasmid RHD_Exon4_TALEN_L)); test: single-molecule fluorescence (surface-immobilized DNA in flow cell); conditions: FRET: TE pH 8.0, 100 nM dsDNA, 10-100 nM tTALE-eGFP for Kd; NaCl series 0-200 mM at 30 nM protein; excitation 488 nm, emission 631 nm; temperature not stated

Row | Substance | pKd [1] | K half [2] [nM]
1 | TGTCTGTATG (double strand) [target DNA] | 7.57 | –
2 | lambda DNA | – | 22
